# Measured values published in IntAct's records for PubMed 20080774.
# B1: Nuclear factor of activated T-cells 5 (Homo sapiens), O94916-1 (parent)
# chain: MPSDFISLLSADLDLESPKSLYSRESVYDLLPKELQLPPSRETSVASMSQTSGGEAGSPPPAVVAADASSAPSSSSMGGACSSFTTSSSPTIYSTSVTDSKAMQVESCSSAVGVSNRGVSEKQLTSNTVQQHPSTPKRHTVLYISPPPEDLLDNSRMSCQDEGCGLESEQSCSMWMEDSPSNFSNMSTSSYNDNTEVPRKSRKRNPKQRPGVKRRDCEESNMDIFDADSAKAPHYVLSQLTTDNKGNSKAGNGTLENQKGTGVKKSPMLCGQYPVKSEGKELKIVVQPETQHRARYLTEGSRGSVKDRTQQGFPTVKLEGHNEPVVLQVFVGNDSGRVKPHGFYQACRVTGRNTTPCKEVDIEGTTVIEVGLDPSNNMTLAVDCVGILKLRNADVEARIGIAGSKKKSTRARLVFRVNIMRKDGSTLTLQTPSSPILCTQPAGVPEILKKSLHSCSVKGEEEVFLIGKNFLKGTKVIFQENVSDENSWKSEAEIDMELFHQNHLIVKVPPYHDQHITLPVSVGIYVVTNAGRSHDVQPFTYTPDPAAAGALNVNVKKEISSPARPCSFEEAMKAMKTTGCNLDKVNIIPNALMTPLIPSSMIKSEDVTPMEVTAEKRSSTIFKTTKSVGSTQQTLENISNIAGNGSFSSPSSSHLPSENEKQQQIQPKAYNPETLTTIQTQDISQPGTFPAVSASSQLPNSDALLQQATQFQTRETQSREILQSDGTVVNLSQLTEASQQQQQSPLQEQAQTLQQQISSNIFPSPNSVSQLQNTIQQLQAGSFTGSTASGSSGSVDLVQQVLEAQQQLSSVLFSAPDGNENVQEQLSADIFQQVSQIQSGVSPGMFSSTEPTVHTRPDNLLPGRAESVHPQSENTLSNQQQQQQQQQQVMESSAAMVMEMQQSICQAAAQIQSELFPSTASANGNLQQSPVYQQTSHMMSALSTNEDMQMQCELFSSPPAVSGNETSTTTTQQVATPGTTMFQTSSSGDGEETGTQAKQIQNSVFQTMVQMQHSGDNQPQVNLFSSTKSMMSVQNSGTQQQGNGLFQQGNEMMSLQSGNFLQQSSHSQAQLFHPQNPIADAQNLSQETQGSLFHSPNPIVHSQTSTTSSEQMQPPMFHSQSTIAVLQGSSVPQDQQSTNIFLSQSPMNNLQTNTVAQEAFFAAPNSISPLQSTSNSEQQAAFQQQAPISHIQTPMLSQEQAQPPQQGLFQPQVALGSLPPNPMPQSQQGTMFQSQHSIVAMQSNSPSQEQQQQQQQQQQQQQQQQQSILFSNQNTMATMASPKQPPPNMIFNPNQNPMANQEQQNQSIFHQQSNMAPMNQEQQPMQFQSQSTVSSLQNPGPTQSESSQTPLFHSSPQIQLVQGSPSSQEQQVTLFLSPASMSALQTSINQQDMQQSPLYSPQNNMPGIQGATSSPQPQATLFHNTAGGTMNQLQNSPGSSQQTSGMFLFGIQNNCSQLLTSGPATLPDQLMAISQPGQPQNEGQPPVTTLLSQQMPENSPLASSINTNQNIEKIDLLVSLQNQGNNLTGSF
# partner: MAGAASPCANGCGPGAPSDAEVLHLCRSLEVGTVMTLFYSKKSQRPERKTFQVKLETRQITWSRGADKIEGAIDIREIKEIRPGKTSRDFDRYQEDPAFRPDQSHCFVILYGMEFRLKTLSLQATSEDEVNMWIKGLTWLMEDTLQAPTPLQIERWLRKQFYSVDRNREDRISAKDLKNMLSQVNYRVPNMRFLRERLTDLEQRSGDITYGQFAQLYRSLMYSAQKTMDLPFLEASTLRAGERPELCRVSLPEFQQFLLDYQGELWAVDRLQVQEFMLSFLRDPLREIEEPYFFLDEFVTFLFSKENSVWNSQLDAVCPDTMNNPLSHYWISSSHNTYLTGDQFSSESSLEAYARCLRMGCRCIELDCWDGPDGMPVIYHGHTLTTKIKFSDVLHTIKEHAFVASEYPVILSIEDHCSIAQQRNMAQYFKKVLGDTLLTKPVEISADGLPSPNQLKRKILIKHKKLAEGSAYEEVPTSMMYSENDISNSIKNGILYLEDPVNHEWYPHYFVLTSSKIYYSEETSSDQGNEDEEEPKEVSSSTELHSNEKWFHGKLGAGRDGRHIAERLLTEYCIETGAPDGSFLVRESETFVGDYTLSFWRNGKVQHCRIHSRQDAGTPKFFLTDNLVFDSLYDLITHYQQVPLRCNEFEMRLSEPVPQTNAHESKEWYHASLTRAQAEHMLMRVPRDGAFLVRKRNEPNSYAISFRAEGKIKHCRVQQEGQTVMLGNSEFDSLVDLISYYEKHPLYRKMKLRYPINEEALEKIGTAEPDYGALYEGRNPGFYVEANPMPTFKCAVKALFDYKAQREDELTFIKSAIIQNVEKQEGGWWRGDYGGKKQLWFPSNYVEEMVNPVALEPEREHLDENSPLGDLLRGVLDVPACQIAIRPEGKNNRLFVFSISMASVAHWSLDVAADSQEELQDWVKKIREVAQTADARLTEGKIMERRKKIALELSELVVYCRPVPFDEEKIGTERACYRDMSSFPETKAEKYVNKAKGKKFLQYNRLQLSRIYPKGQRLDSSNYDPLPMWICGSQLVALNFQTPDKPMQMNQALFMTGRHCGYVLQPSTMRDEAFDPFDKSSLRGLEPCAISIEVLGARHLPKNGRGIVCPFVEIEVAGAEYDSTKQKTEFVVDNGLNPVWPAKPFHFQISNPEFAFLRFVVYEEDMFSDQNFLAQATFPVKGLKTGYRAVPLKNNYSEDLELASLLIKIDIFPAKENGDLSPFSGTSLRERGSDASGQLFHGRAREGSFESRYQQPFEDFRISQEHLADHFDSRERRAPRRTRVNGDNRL
# Variants of: B1
# Settings: with plcg1_human PLCG1, P19174
row,effect of a mutation on the interaction,Variant
1,decreasing interaction,Y143A
